Assay results taken from paper PMC12551704, “Metabolic regulation of behavior by the intestinal enzyme FMO-2” (Science Advances, 2025).

T1: FMO-2 (Caenorhabditis elegans, UniProt G5EBJ9)
T1 construct: purified FMO-2 protein purchased from GenScript
T1 sequence (G5EBJ9 1-529): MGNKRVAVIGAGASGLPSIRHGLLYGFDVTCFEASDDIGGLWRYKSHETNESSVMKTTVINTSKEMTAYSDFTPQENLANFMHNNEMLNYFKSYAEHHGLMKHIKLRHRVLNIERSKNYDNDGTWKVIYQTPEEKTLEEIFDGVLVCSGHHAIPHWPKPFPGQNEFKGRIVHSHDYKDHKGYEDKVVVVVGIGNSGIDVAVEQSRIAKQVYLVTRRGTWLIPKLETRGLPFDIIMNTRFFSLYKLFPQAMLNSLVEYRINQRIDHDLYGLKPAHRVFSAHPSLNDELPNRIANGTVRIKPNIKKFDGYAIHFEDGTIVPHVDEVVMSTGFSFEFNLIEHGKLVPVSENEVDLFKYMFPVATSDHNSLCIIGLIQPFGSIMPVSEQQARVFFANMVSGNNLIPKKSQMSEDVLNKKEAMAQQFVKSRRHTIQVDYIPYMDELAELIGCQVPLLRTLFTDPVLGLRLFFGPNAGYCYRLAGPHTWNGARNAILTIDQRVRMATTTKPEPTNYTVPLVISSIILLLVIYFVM


Assays:
FMO-2 = biological target: T1, FMO-2; test: NADPH consumption at […] nm, Michaelis-Menten fit; type: biochemical; conditions: 0.5 mM NADPH, excess FAD, 25 mM sodium phosphate pH 8.5, 0.5 mM DETAPAC, 30 C; 0.1-10 mM substrate
purified protein = substrate: CC(=O)C(=O)O; test: purified protein; type: biochemical, Caenorhabditis elegans; conditions: 0.5 mM NADPH, excess FAD, 25 mM sodium phosphate pH 8.5, 0.5 mM DETAPAC, 30 C

Molecule | Km (FMO-2) | Km (purified protein) | kcat (purified protein) | kcat/Km (purified protein)
N[C@@H](Cc1c[nH]c2ccccc12)C(=O)O [tryptophan] | 880 ± 430 µM | – | – | –
FMO-2 (Caenorhabditis elegans) (protein, purified FMO-2 protein purchased from GenScript) MGNKRVAVIGAGASGLPSIRHGLLYGFDVTCFEASDDIGGLWRYKSHETNESSVMKTTVINTSKEMTAYSDFTPQENLANFMHNNEMLNYFKSYAEHHGLMKHIKLRHRVLNIERSKNYDNDGTWKVIYQTPEEKTLEEIFDGVLVCSGHHAIPHWPKPFPGQNEFKGRIVHSHDYKDHKGYEDKVVVVVGIGNSGIDVAVEQSRIAKQVYLVTRRGTWLIPKLETRGLPFDIIMNTRFFSLYKLFPQAMLNSLVEYRINQRIDHDLYGLKPAHRVFSAHPSLNDELPNRIANGTVRIKPNIKKFDGYAIHFEDGTIVPHVDEVVMSTGFSFEFNLIEHGKLVPVSENEVDLFKYMFPVATSDHNSLCIIGLIQPFGSIMPVSEQQARVFFANMVSGNNLIPKKSQMSEDVLNKKEAMAQQFVKSRRHTIQVDYIPYMDELAELIGCQVPLLRTLFTDPVLGLRLFFGPNAGYCYRLAGPHTWNGARNAILTIDQRVRMATTTKPEPTNYTVPLVISSIILLLVIYFVM | – | 590 ± 290 µM | 35 ± 1 s⁻¹ | 59000 M⁻¹ s⁻¹
